{"source": "paper PMC10493163", "molecular_target": "angiotensin-converting enzyme 2 (ACE2), noncovalently adsorbed on (GT)6-SWCNTs (human) (UniProt Q9BYF1)", "sequence (Q9BYF1 18-805)": "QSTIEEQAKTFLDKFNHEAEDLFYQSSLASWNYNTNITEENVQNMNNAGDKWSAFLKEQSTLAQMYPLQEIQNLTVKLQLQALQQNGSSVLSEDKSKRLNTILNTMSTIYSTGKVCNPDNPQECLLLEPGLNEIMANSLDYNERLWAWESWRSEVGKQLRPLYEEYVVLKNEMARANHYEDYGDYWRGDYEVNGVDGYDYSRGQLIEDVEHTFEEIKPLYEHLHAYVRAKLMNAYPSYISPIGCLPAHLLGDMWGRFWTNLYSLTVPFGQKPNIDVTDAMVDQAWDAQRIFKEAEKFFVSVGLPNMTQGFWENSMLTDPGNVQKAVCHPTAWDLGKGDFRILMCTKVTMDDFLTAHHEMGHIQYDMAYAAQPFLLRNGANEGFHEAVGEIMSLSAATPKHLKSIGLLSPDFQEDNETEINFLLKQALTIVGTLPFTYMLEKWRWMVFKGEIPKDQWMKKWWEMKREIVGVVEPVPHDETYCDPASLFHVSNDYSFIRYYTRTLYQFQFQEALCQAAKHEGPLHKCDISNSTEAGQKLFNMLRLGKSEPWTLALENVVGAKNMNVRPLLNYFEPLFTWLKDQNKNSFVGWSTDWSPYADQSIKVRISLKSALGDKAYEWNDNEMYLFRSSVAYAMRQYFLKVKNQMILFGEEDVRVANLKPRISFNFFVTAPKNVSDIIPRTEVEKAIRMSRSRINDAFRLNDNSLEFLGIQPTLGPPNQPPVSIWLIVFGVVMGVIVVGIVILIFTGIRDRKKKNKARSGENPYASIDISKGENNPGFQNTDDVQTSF", "assay": "other fluorescence titration", "data": [{"substance": "SARS-CoV-1 spike protein receptor-binding domain (domain or fragment)", "values": [{"measurement": "dF/F0 of the 1130 nm SWCNT emission peak after 90 min, 10 mg/L", "result": 88.4, "unit": "%"}]}]}
